From FireProtDB (doi:10.1021/bi051013y)

Conditions: Pleurotus ostreatus, Thermal, whole UniProt chain shown
[1] = pH 6, 25 °C, Absorbance, Carbonate 10 mM, reversible: yes
[2] = pH 6, Absorbance, Carbonate 10 mM, reversible: yes
[3] = pH 6, absorbance, HEPES, transition: 2, reversible: YES
[4] = pH 8, 25 °C, Absorbance, HEPES 10 mM, reversible: yes
[5] = pH 8, Absorbance, HEPES 10 mM, reversible: yes
[6] = pH 8, absorbance, HEPES, transition: 2, reversible: YES
[7] = pH 9, Absorbance, Borate 10 mM, reversible: yes
[8] = pH 9, absorbance, HEPES, transition: 2, reversible: YES
[9] = pH 10, 25 °C, Absorbance, Carbonate 10 mM, reversible: yes
[10] = pH 10, Absorbance, Carbonate 10 mM, reversible: yes
[11] = pH 10, absorbance, HEPES, transition: 2, reversible: YES
[12] = pH 11, 25 °C, Absorbance, Carbonate 10 mM, reversible: yes
[13] = pH 11, Absorbance, Carbonate 10 mM, reversible: yes

B1: wild type, Q56QW9 (protein)
chain: AYAQWVIILIHNVGQQNVKIKNLNASWGKLYADGDKDTEVPASKYEGMVIAPGDQVQINACGREDAAEGTTGTFDLVDPNDSDKQVRHISWDCPWGTKANSWVVGGSNSKWMIEYTGQNLDSGALGTITVNTLKIGN
- heat capacity change of unfolding [1]: 2.87 kcal/mol/K
- unfolding enthalpy (van 't Hoff) [1]: 62.9 kcal/mol
- unfolding free energy [1]: 7.27 kcal/mol
- Tm [2]: 48.6 °C
- unfolding enthalpy (van 't Hoff) [2]: 130 kcal/mol
- Tm [3]: 48.6 °C
- unfolding enthalpy (van 't Hoff) [3]: 130 kcal/mol
- unfolding enthalpy (calorimetric) (pH 6, absorbance, HEPES): 62.9 kcal/mol
- unfolding free energy (pH 6, absorbance, HEPES): 7.27 kcal/mol
- Tm (pH 7, absorbance, HEPES, transition: 3, reversible: YES): 54.6 °C
- heat capacity change of unfolding [4]: 2.87 kcal/mol/K
- unfolding enthalpy (van 't Hoff) [4]: 64.5 kcal/mol
- unfolding free energy [4]: 8.94 kcal/mol
- Tm [5]: 51.2 °C
- unfolding enthalpy (van 't Hoff) [5]: 140 kcal/mol
- Tm [6]: 51.2 °C
- unfolding enthalpy (van 't Hoff) [6]: 140 kcal/mol
- unfolding enthalpy (calorimetric) (pH 8, absorbance, HEPES): 64.5 kcal/mol
- unfolding free energy (pH 8, absorbance, HEPES): 8.94 kcal/mol
- Tm [7]: 47.2 °C
- unfolding enthalpy (van 't Hoff) [7]: 130 kcal/mol
- Tm [8]: 47.2 °C
- unfolding enthalpy (van 't Hoff) [8]: 130 kcal/mol
- unfolding enthalpy (calorimetric) (pH 9, absorbance, HEPES): 66.2 kcal/mol
- unfolding free energy (pH 9, absorbance, HEPES): 7.05 kcal/mol
- heat capacity change of unfolding [9]: 2.87 kcal/mol/K
- unfolding enthalpy (van 't Hoff) [9]: 60.5 kcal/mol
- unfolding free energy [9]: 3.47 kcal/mol
- Tm [10]: 39.4 °C
- unfolding enthalpy (van 't Hoff) [10]: 102 kcal/mol
- Tm [11]: 39.4 °C
- unfolding enthalpy (van 't Hoff) [11]: 102 kcal/mol
- unfolding enthalpy (calorimetric) (pH 10, absorbance, HEPES): 60.5 kcal/mol
- unfolding free energy (pH 10, absorbance, HEPES): 3.47 kcal/mol
- heat capacity change of unfolding [12]: 2.87 kcal/mol/K
- unfolding enthalpy (van 't Hoff) [12]: 66.4 kcal/mol
- unfolding free energy [12]: 2.32 kcal/mol
- Tm [13]: 34.6 °C
- unfolding enthalpy (van 't Hoff) [13]: 93.9 kcal/mol
- unfolding enthalpy (calorimetric) (pH 11, absorbance, HEPES): 66.4 kcal/mol
- unfolding free energy (pH 11, absorbance, HEPES): 2.32 kcal/mol
